Measurements from patent US12359199B2, “Regulation of gene expression via aptamer-mediated control of self-cleaving ribozymes” (MEIRAGTX UK II LIMITED, priority 2016, dated 2025).
Where “and” joins values, the source holds several entries; their conditions need not be identical. Identical values can stand only once.

Experiments:
Format in all cases: cell-based
[1] = test system: firefly luciferase expression in HEK 293 cells; experiment: Firefly luciferase assay of transfected HEK 293 cells treated with or without guanine or guanosine; details: riboswitch in 3′ UTR
Experimental: Firefly luciferase assay of cultured cells: 24 hours after media change, plates were removed from the incubator, equilibrated to RT for several minutes on a lab bench, and then aspirated. Glo-lysis buffer (Promega, 100 μL, RT) was added, and the plates allowed to remain at RT for at least 5 minutes. The well contents were mixed by 50 μL trituration, and 20 μL of each sample was mixed with 20 μL of bright-glo reagent (Promega) that had been diluted to 10% in glo-lysis buffer. 96 wells were spaced on an opaque white 384-well plate. Following a 5-minute incubation at RT, luminescence was measured using a Tecan machine with 500 mSec read time. The luciferase activity was expressed as mean relative light unit (RLU)±S.D. […]
Transfection and aptamer ligand treatment: HEK 293 cells were transfected as described in Example 1. Four hours after transfection, the media was aspirated, and new media with or without 500 μM guanine or 1 mM guanosine (Sigma) was added. Luciferase assay was performed 20 to 24 hours after guanine or guanosine treatment as described in Example 2. The reduction fold was expressed as the quotient of luciferase activity obtained in the absence of aptamer ligand divided by the value obtained in the presence of the aptamer ligand.
Oligos containing either a start codon or coding sequence for the first 10 amino acids of GFP and waspGua16 followed by a linker2A sequence were synthesized (IDT) and cloned into the pLuc vector using the Gibson cloning strategy and cloning kit (NEB). Transfection and luciferase assay of cultured cells were performed as described in Example 3. […]

[2] = test system: mouse erythropoietin (Epo) gene expression in HEK 293 cells; experiment: ELISA assay for measuring mouse Epo in culture media of transfected HEK 293 cells; details: riboswitch in 3′ UTR of mouse Epo gene; ligand-treated vs solvent-treated control cells; supernatant 18 hours after treatment
Experimental: FIG. 3e. HEK 293 cells were transfected with the indicated constructs, and treated with 500 μM guanosine. DMSO was used as solvent control. Supernatant was collected 18 hours after guanosine treatment, the Epo was measured using ELISA kit. The results were expressed as mean±SD (n=2). Shown is the representative of two independent experiments.
ELISA assay for measuring mouse Epo in culture media: Supernatant was collected 18 hours after drug treatment, and an ELISA was performed using ELISA kit (R&D) according to manufacturer's instructions. The data was analyzed using 4-parameter curve fitting.

[3] = test system: firefly luciferase expression in HEK 293 cells; experiment: Firefly luciferase assay of transfected HEK 293 cells treated with or without theophylline
Experimental: Firefly luciferase assay of cultured cells: 24 hours after media change, plates were removed from the incubator, equilibrated to RT for several minutes on a lab bench, and then aspirated. Glo-lysis buffer (Promega, 100 μL, RT) was added, and the plates allowed to remain at RT for at least 5 minutes. The well contents were mixed by 50 μL trituration, and 20 μL of each sample was mixed with 20 μL of bright-glo reagent (Promega) that had been diluted to 10% in glo-lysis buffer. 96 wells were spaced on an opaque white 384-well plate. Following a 5-minute incubation at RT, luminescence was measured using a Tecan machine with 500 mSec read time. The luciferase activity was expressed as mean relative light unit (RLU)±S.D.
Oligos containing the twister ribozyme sequence linked with theophylline aptamer were synthesized (IDT), and cloned into pLuc vector using Gibson cloning strategy and kit (NEB). Construct sequences were verified by DNA sequencing (Genewiz).
Transfection and firefly luciferase assay: HEK 293 cells were transfected as described in Example 1. Four hours after transfection, the media was aspirated, and new media with or without 2 mM theophylline (Sigma) was added. […] The reduction fold was expressed as the quotient of luciferase activity obtained in the absence of aptamer ligand divided by the value obtained in the presence of the aptamer ligand.

| Molecule | fold reduction in luciferase activity upon guanine treatment ([1]; 500 μM guanine vs no guanine) | reduction in luciferase activity upon guanine treatment ([1]; 500 μM guanine vs no guanine) [%] | reduction in luciferase activity upon guanine treatment (in words) ([1]; 500 μM guanine) | fold reduction in luciferase expression upon guanosine treatment ([1]; guanosine at 1 mM as aptamer ligand) [fold] | reduction of Epo production [2] | reduction in gene expression (luciferase activity) upon theophylline treatment ([3]; 2 mM theophylline vs no theophylline) [%] | luciferase activity in the absence of aptamer ligand (in words) ([3]; no theophylline) |
| --- | --- | --- | --- | --- | --- | --- | --- |
| Luci-waspGua16: Luciferase construct with 3 bp of stem connecting the guanine aptamer directly to twister loop 2; OFF riboswitch in 3′ UTR (nucleic acid, misc_feature 1..247 waspGua16 in pLuc, Luciferase construct with 3 bp of stem connecting the guanine aptamer directly to twister loop 2; OFF riboswitch in 3′ UTR) DNA: TCAGAGAGATCCTCATAAAGGCCAAGAAGGGCGGAAAGATCGCCGTGTAAACGCCTTGTAATGCGGCATATAATCGCGTGGATATGGCACGCAAGTTTCTACCGGGCACCGTAAATGTCCGACTATTCGGTCTCAAGCCCGATAAACGCAGAGAGCAAGGCGGCCGCCATACCACATTTGTAGAGGTTTTACTTGCTTTAAAAAACCTCCCACACCTCCCCCTGAACCTGAAACATAAAATGAATGC | 15 fold and 12 fold | 92 | reduced luciferase activity | 25 | approximately 30% |  |  |
| twister_theo_3: Theophylline aptamer linked by 3 bp stem to loop 2 of twister ribozyme, in pLuc (nucleic acid, misc_feature 1..219 twister_theo_3 in pLuc, Theophylline aptamer linked by 3 bp stem to loop 2 of twister ribozyme, in pLuc) DNA: TCAGAGAGATCCTCATAAAGGCCAAGAAGGGCGGAAAGATCGCCGTGTAAACGCCTTGTAATGCGGCGCGATACCAGCCGAAAGGCCCTTGGCAGCGTTCGGTCTCAAGCCCGATAAACGCAGAGAGCAAGGCGGCCGCCATACCACATTTGTAGAGGTTTTACTTGCTTTAAAAAACCTCCCACACCTCCCCCTGAACCTGAAACATAAAATGAATGC |  |  |  |  |  | 62 | the most robust luciferase activity |
